In patent US20100291088A1:

Experiments:
Test in all cases: cell-based or functional assay
[1] = molecular target: natural human IL-18 (human) (UniProt Q14116)
(4C/A)-huIL-18 (human) = (4C/A)-huIL-18 (human) (UniProt Q14116)
NEM-huIL-18 (human) = NEM-huIL-18 (human) (UniProt Q14116)

| WBA neutralization potency in vitro (IC50, nM) [1] | KG-1 neutralization potency in vitro (IC50, nM) ((4C/A)-huIL-18 (human)) | KG-1 Assays (IC50, M) (NEM-huIL-18 (human)) | Binder |
| --- | --- | --- | --- |
| 3 nM | 0.2 nM |  | Murine anti-human IL-18 mAb (125-2H) (antibody, from another filing, V domains shown) VH: EIQLQQSGPELVKPGASVKVSCKASGYSFTDYFIYWVKQSHGKSLEWIGDIDPYNGDTSYNQKFRDKATLTVDQSSTTAFMHLNSLTSEDSAVYFCARGLRFWGQGTLVTVSA VL: DIQMTQSPSSLSASLGERVSLTCRASQDIGSKLYWLQQEPDGTFKRLIYATSSLDSGVPKRFSGSRSGSDYSLTISSLESEDFVDYYCLQYASSPYTFGGGTKLAIKR |
|  |  | 7e-09 M | 268 (antibody, V domains shown) VH: ZVQLVESGGGVVQPGRSLRLSCAASGFTFRNYGLHWVRQAPGKGLEWVAVIWYDGSNKYYADSVKGRFTISRDNSKNTLYLQMNSLRAEDTAVYYCARESYYYYGMDVWGQGTTVTVSS VL: EIVMTQSPATLSVSPGERATLSCRASQSFNSNLVWYQQKPGQAPRLLIYGASTRATGIPARFSGSGSGTEFTLTISSLQSEDFAVYYCQQYNNWTWTFGQGTKVEIKR |
